Here are results for 25 molecules from patent US20220031857A1 (OSSIANIX, published 2022).

What all share (experiment): phage ELISA
Background: In an ELISA, binding on a coated surface is turned into a signal by an enzyme label.

One test has as its target T1, recombinant mouse TfR2 (mouse, UniProt Q9JKX3 103-798, limits assumed).
T1 construct: Negative control protein
T1 sequence (looked up): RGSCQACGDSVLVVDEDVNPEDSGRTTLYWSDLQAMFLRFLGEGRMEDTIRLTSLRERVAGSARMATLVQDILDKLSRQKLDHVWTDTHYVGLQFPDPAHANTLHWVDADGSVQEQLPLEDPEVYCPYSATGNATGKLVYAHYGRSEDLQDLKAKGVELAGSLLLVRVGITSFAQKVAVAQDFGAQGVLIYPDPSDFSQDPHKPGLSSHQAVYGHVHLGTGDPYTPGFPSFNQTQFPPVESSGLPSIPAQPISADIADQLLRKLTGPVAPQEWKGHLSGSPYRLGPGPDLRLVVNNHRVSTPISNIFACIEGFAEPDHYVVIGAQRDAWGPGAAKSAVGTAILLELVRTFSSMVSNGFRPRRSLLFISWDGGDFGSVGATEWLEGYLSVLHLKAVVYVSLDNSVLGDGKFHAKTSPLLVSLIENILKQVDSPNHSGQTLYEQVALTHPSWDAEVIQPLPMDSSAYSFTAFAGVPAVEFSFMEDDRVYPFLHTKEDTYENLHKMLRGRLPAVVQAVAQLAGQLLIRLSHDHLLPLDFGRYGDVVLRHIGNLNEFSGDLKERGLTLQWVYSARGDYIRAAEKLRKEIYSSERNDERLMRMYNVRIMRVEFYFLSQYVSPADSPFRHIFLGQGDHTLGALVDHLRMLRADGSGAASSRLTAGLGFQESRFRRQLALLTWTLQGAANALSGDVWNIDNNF

The target in test [1] is T2, recombinant mouse TfR1 (transferrin receptor 1) (mouse, UniProt Q62351 89-763).
T2 construct: Bought recombinant His-tagged protein; also called mTfR1
T2 sequence (Q62351 89-763 limits assumed): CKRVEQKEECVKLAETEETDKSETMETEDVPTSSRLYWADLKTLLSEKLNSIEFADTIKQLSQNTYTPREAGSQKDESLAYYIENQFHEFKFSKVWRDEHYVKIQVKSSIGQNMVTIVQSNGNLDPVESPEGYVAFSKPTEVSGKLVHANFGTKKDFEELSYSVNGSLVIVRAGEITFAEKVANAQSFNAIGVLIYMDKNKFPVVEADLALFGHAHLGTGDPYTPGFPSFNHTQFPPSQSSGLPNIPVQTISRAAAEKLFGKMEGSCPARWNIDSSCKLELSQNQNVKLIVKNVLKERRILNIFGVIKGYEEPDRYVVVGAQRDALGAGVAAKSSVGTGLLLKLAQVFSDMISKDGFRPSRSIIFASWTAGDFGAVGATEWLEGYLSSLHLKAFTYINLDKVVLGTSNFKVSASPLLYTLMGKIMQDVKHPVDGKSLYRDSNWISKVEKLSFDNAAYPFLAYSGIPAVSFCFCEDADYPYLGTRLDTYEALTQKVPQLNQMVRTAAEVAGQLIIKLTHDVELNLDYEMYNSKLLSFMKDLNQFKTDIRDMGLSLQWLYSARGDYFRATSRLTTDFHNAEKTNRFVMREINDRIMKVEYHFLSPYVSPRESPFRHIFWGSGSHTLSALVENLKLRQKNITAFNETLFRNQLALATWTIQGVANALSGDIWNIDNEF

Test [2] has as its target T3, recombinant human TfR1 (transferrin receptor 1) (human, UniProt P02786 89-760).
T3 construct: Bought recombinant His-tagged protein; also called hTfR1

Where a chain is given by its changes, count along the chain named.

T3 sequence (P02786 89-760 limits assumed): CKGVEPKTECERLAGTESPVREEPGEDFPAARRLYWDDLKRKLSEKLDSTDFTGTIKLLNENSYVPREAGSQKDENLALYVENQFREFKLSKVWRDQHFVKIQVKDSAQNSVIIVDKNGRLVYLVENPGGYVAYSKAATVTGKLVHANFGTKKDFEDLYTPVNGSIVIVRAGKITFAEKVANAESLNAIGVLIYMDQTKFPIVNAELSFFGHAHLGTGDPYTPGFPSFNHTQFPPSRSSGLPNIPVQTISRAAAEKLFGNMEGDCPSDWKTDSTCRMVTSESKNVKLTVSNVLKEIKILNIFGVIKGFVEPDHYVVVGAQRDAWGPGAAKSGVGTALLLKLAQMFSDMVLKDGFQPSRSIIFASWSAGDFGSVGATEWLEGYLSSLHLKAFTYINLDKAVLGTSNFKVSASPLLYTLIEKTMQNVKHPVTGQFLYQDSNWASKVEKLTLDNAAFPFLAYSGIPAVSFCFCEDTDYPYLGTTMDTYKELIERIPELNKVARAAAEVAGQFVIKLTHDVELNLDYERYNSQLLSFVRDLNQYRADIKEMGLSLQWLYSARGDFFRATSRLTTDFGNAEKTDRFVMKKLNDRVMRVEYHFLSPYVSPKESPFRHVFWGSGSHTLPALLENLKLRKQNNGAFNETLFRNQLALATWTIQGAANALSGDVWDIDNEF

B1: SEQ ID NO 32 (VNAR clone displayed on phage) (VNAR)
VNAR: ARVDQTPQTITKETGESLTINCVLRDSNCALSNLYWYRKKSGSRNEESISKGGRYVETVNSGSKSFSLKINDLTVEDSGTYRCKVFGMRTHCQWVIYRITDVYGGGTAVTVNA
notes: shark VNAR domain on M13 phage; coat-protein fusion not described
As for B1, the binding result with recombinant mouse TfR2 was “no binding”; in test [1], “binds”; in test [2], “binds”.

B2: SEQ ID NO 36 (VNAR clone displayed on phage) (VNAR)
VNAR: ARVDQTPQTITKETGESLTINCVLRDSNCDLSRTYWYRKKSGSTNEESISKGGRYVETVNSGSKSFSLRINDLVVEDSGTYRCNVHSVSCIQRLDVYGGGTVVTVNA
notes: as for B1
Regarding B2, the results for the binding result (with recombinant mouse TfR2; in test [1]; in test [2]) were “no binding”, “binds” and “binds”, respectively.

B3: SEQ ID NO 31 (VNAR clone displayed on phage) (VNAR)
VNAR: ARVDQTPQTITKETGESLTINCVLRDSNCDLSRTYWYRKKSGSTNEESISKGGRYVETVNSGSKSFSLKINDLTVEDSGTYRCNVFLWNNYNPMDVYGGGTAVTVNA
notes: as for B1
For B3, the binding result in test [1] and in test [2] was “binds” in each case.

B4: SEQ ID NO 17 (VNAR clone displayed on phage) (VNAR)
VNAR: ARVDQTPQTITKETGESLTINCVLRDSNCALPSTYWYRKKSGSTNEESISKGGRYVETVNSGSKSFSLRINDLTVKDSGTYRCNVARHWTQSCAYHRDVYGGGTAVTVNA
notes: as for B1
For the molecule B4, the binding result in test [1] and in test [2] was “binds” each time.

B5: SEQ ID NO 35 (VNAR clone displayed on phage) (VNAR)
VNAR: ARVDQTPQTITKETGESLTINCVLRDSNCDLSRTYWYRKKSGSTNEESISKGGRYVETVNSGSKSFSLRINDLTVEDSGTYRCNVTWLDCHQCGASDVYGGGTVVTVNA
notes: as for B1
As for B5, the binding result in the test with recombinant mouse TfR2 is “no binding”; in test [1], “binds”; in test [2] it was “binds”.

B6: SEQ ID NO 21 (VNAR clone displayed on phage) (VNAR)
VNAR: ARVDQTPQTITKETGESLTINCVLRDSNCALSSTYWYRKKSGSTNEESISKGGRYVETVNSGSKSFSLRINDLTVEDSGTYRCKVLTSQSQGGCVRVLYSDVYGDGTAVTVNA
notes: as for B1
For B6, the binding result in test [1] and in test [2] was “binds” each time.

B7: SEQ ID NO 19 (VNAR clone displayed on phage) (VNAR)
VNAR: ARVDQTPQTITKETGESLTINCVLRDSNCALPSTYWYRKKSGSTNEESISKGGRYVETVNSGSKSFSLRINDLTVEDSGTYRCNVGWSTQYYCVLPDVYGGGTAVTVNA
notes: as for B1
For the molecule B7, the binding result in test [1] and in test [2] was “binds” in each case.

B8: SEQ ID NO 18 (VNAR clone displayed on phage) (VNAR)
VNAR: ARVDQTPQTITKETGESLTINCVLRDSNCALPSTYWYRKKSGSTNEESISKGGRYVETVNSGSKSFSLRINDLTVKDSGTYRCNVQHIFQHNCYWFLYDVYGGGTAVTVNA
notes: as for B1
Turning to B8, the binding result in test [1] and in test [2] was “binds” each time.

B9: SEQ ID NO 15 (VNAR clone displayed on phage) (VNAR)
VNAR: ARVDQTPQTITKETGESLTINCVLRDSNCALPSTYWYCKKSGSTNEESISKGGRYVETVNSGSKSFSLRINDLTVKDSGTYRCKVHVRAQSLCCQCWYGDVYGDGTAVTVNA
notes: as for B1
With B9, the binding result in test [1] and in test [2] was “binds” in each case.

B10: SEQ ID NO 26 (VNAR clone displayed on phage) (VNAR)
VNAR: ARVDQTPQTITKETGESLTINCVLRDSNCALSNLYWYRKKSGSTNEENISKGGRYVETVNSGSKSFSLRINDLTVEDSGTYRCNVDVTRCTQSQDVYGGGTAVTVNA
notes: as for B1
As to B10, the binding result in test [1] and in test [2] was “binds” throughout.

B11: SEQ ID NO 27 (VNAR clone displayed on phage) (VNAR)
VNAR: B10 VNAR with I10V, N48S, K51L, D86K, V87H, T88Y, R89V, T91M, Q94K, A102V
notes: as for B1
For the molecule B11, the binding result in test [1] and in test [2] was “binds” in each case.

B12: SEQ ID NO 20 (VNAR clone displayed on phage) (VNAR)
VNAR: ARVDQTPQTITKETGESLTINCVLRDSNCALPSTYWYRKKSGSTNEESISKGGRYVETVNSGSKSFSLRINDLTVEDSGTYRCNVYTSYCCSVADVYGGGTAVTVNA
notes: as for B1
As to B12, the binding result in test [1] and in test [2] was “binds” in each case.

B13: SEQ ID NO 29 (VNAR clone displayed on phage) (VNAR)
VNAR: ARVDQTPQTITKETGESLTINCVLRDSNCALSNLYWYRKKSGSTNEESISLGGRYVETVNSGSKSFSLRINDLTVEDSGTYRCKVSTSVPRHYDNCRQRRHDVYGGGTAVTVNA
notes: as for B1
For B13, the binding result in test [1] and in test [2] was “binds” throughout.

B14: SEQ ID NO 22 (VNAR clone displayed on phage) (VNAR)
VNAR: ARVDQTPQTITKETGESLTINCVLRDSNCALSSTYWYRKKSDSTNEESISKGGRYVETVNSGSKSFSLRINDLTVEDSGTYRCKVHSFNMDVCAEFQYSDVYGDGTAVTVNA
notes: as for B1
As to B14, the binding result in test [1] and in test [2] was “binds” in each case.

B15: SEQ ID NO 28 (VNAR clone displayed on phage) (VNAR)
VNAR: ARVDQTPQTITKETGESLTINCVLRDSNCALSNLYWYRKKSGSTNEESISLGGRYVETVNSGSKSFSLRINDLTVKDSGTYRCNVFSFSCQLLFDVYGGGTAVTVNA
notes: as for B1
Turning to B15, the binding result in test [1] and in test [2] was “binds” in each case.

B16: SEQ ID NO 34 (VNAR clone displayed on phage) (VNAR)
VNAR: ARVDQTPQTITKETGESLTINCVLRDSNCDLSRTYWYRKKSGSTNEESISKGGRYVETVNSGSKSFSLRINDLVVEDSGTYRCNVAVFTRCHNQQDVYGGGTAVTVNA
notes: as for B1
Consider B16, for which the binding result with recombinant mouse TfR2 is reported as “no binding”; in test [1], “binds”; in test [2] it was “binds”.

B17: SEQ ID NO 25 (VNAR clone displayed on phage) (VNAR)
VNAR: ARVDQTPQTITKETGESLTINCVLRDSNCALSNLYWYRKKSGSTNEESISLGGRYVETVNSGSKSFSLRINDLTVEDSGTYRCNVCLLQLAGYDSPYDVYGGGTAVTVNA
notes: as for B1
For B17, the binding result in test [1] and in test [2] was “binds” in each case.

B18: SEQ ID NO 30 (VNAR clone displayed on phage) (VNAR)
VNAR: ARVDQTPQTITKETGESLTINCVLRDSNCALSNLYWYRKKSGSTNEESISLGGRYVETVNSGSKSFSLRINDLTVEDSGTYRCNVCQWLQWYGGEMEDVYGGGTAVTVNA
notes: as for B1
As to B18, the binding result in test [1] and in test [2] was “binds” throughout.

B19: SEQ ID NO 13 (VNAR clone displayed on phage) (VNAR)
VNAR: ARVDQTPQTITKETGESLTINCVLRDSNCALPSTYRYRKKSGSTNEESISKGGRYVETVNSGSKSFSLRINDLTVEDSGTYRCKVTMVRGRGCYQPARGQDVYGGGTAVTVNA
notes: as for B1
For B19, the binding result in test [1] and in test [2] was “binds” each time.

B20: SEQ ID NO 33 (VNAR clone displayed on phage) (VNAR)
VNAR: ARVDQTPQTITKETGESLTINCVLRDSNCDLSRTYWYRKKQGSTNEESISKGGRYVETVNSGSKSFSLRINDLTVEDSGTYRCNVALYHFTGCSRVQDVYGGGTVVTVNA
notes: as for B1
Turning to B20, the binding result is on record as “no binding” with recombinant mouse TfR2, “binds” in test [1] and “binds” in test [2].

B21: SEQ ID NO 38 (VNAR clone displayed on phage) (VNAR)
VNAR: ARVDQTPQTITKETGESLTINCVLRDNNCALSSTLWYRTKSGSRNEESISKGGRYVETVNSGSKSFSLRINDLTVEDSGTYRCKVWQDSLSQPCESGCLDVYGGGTAVTVNA
notes: as for B1
For B21, the binding result was “no binding” in the test with recombinant mouse TfR2, “binds” in test [1] and “binds” in test [2].

B22: SEQ ID NO 37 (VNAR clone displayed on phage) (VNAR)
VNAR: ARVDQTPQTITKETGESLTINCVLRDSNCALSSTLWYRTKSGSRNEESISKGGRYVETVNSGSKSFSLRINDLTVKDSGTYRCNVQQGVVATCTSKRCDVYGGGTAVTVNA
notes: as for B1
With B22, the figures for the binding result (with recombinant mouse TfR2; in test [1]; in test [2]) were “no binding”, “binds” and “binds”, respectively.

B23: SEQ ID NO 23 (VNAR clone displayed on phage) (VNAR)
VNAR: ARVDQTPQTITKETGESLTINCVLRDSNCALSNLYWYRKKSGSTNEESISKGGRYVETVNSGSKSFSLRINDLTVEDSGTYRCNVINFFAMECEYQVGDVYGDGTAVTVNA
notes: as for B1
B23: the binding result in test [1] and in test [2] was “binds” each time.

B24: SEQ ID NO 24 (VNAR clone displayed on phage) (VNAR)
VNAR: ARVDQTPQTITKETGESLTINCVLRDSNCALSNLYWYRKKSGSTNEESISKGGRYVETVNSGSKSFSLRINDLTVKDSGTYRCNVLVSMFCQLAQDVYGDGTAVTVNA
notes: as for B1
B24: the binding result in test [1] and in test [2] was “binds” in each case.

B25: SEQ ID NO 14 (VNAR clone displayed on phage) (VNAR)
VNAR: ARVDQTPQTITKETGESLTINCVLRDSNCALPSTYWYRKKSGSTNEESISKGGRYVETVNSGSKSFSLRINDLTVEDSGTYRCKVTFSAFEYCYVFKVQCDVYGDGTAVTVNA
notes: as for B1
Turning to B25, the binding result in test [1] and in test [2] was “binds” each time.
